According to PMC4672576, “Beninese children with cerebral malaria do not develop humoral immunity against the IT4-VAR19-DC8 PfEMP1 variant linked to EPCR and brain endothelial binding” (Malaria Journal, 2015):

B1: Recombinant soluble EPCR with a 6x His tag (EPCRH) (receptor, human, UniProt Q9UNN8 18-210, looked up)
chain: SQDASDGLQRLHMLQISYFRDPYHVWYQGNASLGGHLTHVLEGPDTNTTIIQLQPLQEPESWARTQSGLQSYLLQFHGLVRLVHQERTLAFPLTIRCFLGCELPPEGSRAHVFFEVAVNGSSFVSFRPERALWQADTQVTSGVVTFTLQQLNAYNRTRYELREFLEDTCVQYVQKHISAENTKGSQTSRSYTS
notes: Endothelial protein C receptor, human, extracellular region residues S18-S210, amplified from a human lung endothelium cDNA library; glycosylated (migrates at about 40 kDa); also called recombinant EPCR; not shown: His6, C-terminal, kept

Legend:
[1] = molecular target: B1; test: SPR; EPCRH immobilised on a CM5 chip by amine coupling (1324 RU); IT4-VAR19 proteins injected 180 s, dissociation 400 s; HBS-EP buffer, 25 °C; Biacore X100; global 1:1 Langmuir fit; conditions: both partners purified
[2] = molecular target: T1, VAR19-NTS-DBLγ6 (N-terminal region of IT4-VAR19 comprising the full-length DC8 cassette) (Plasmodium falciparum (IT4 strain), UniProt A3R6S3 2-1713); test: as above; conditions: both partners purified
T1 construct: PfEMP1 IT4-VAR19, Plasmodium falciparum IT4 (FCR3) strain, residues G2-P1713 (NTS, DBLα2, CIDRα1.1, DBLβ12, DBLγ6); synthetic codon-optimised gene; also called NTS-DBLɣ6; IT4-VAR19-DC8 cassette; not shown: His6, C-terminal, kept

Binder | Kd [1] [µM] | koff [1] [s⁻¹] | kon [1] [M⁻¹ s⁻¹] | Kd [2] [µM] | koff [2] [s⁻¹] | kon [2] [M⁻¹ s⁻¹]
VAR19-CIDRα1.1 (domain or fragment, PfEMP1 IT4-VAR19, CIDRα1.1 domain, residues S580-P739, amplified from IT4 genomic DNA) SVECFHSWAKNLLIDTIRWEHQLKNCINNTNVTDCTSKCIKNCECYEKWIKEKEKEWPQVKGVLKKKDETSHNYYDKLKDVFDRFLFEVKGALDQDEKGKWDQFTKDLEKKFGPSVESAGTANSQDAIELLLDHLNDNATTCKDNNSLAVENCPKTKINP | 0.34 | 0.012 | 35000 |  |  | 
B1 |  |  |  | 0.052 | 0.0011 | 22000
